# From patent US20240279331A1 (University of California, published 2024)
# Changes are numbered by the printed parent chain.
# T1: NCR3 (antigen of the ELISA in the affinity-maturation table) (human, UniProt O14931 19-135, limits assumed)
# T1 construct: also called Natural Cytotoxicity Triggering Receptor 3
# T1 sequence (looked up): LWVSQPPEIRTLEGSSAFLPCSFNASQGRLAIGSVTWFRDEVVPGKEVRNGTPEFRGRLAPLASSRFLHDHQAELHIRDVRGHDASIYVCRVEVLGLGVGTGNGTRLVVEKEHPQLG
# T2: NCR3 on cell (on-cell binding in the affinity-maturation table) (human, UniProt O14931 19-201, limits assumed)
# T2 construct: On cell
# T2 sequence (looked up): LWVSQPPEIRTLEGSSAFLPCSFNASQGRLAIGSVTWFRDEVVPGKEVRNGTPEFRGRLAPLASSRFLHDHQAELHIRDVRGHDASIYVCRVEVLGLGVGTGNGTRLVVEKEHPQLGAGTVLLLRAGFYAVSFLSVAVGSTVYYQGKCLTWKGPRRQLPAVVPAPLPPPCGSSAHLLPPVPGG
# T3: CD244 extracellular domain fused to a generic transmembrane domain, on tetracycline-inducible FlpIn cells (UniProt Q9BZW8 22-229)
# T3 construct: extracellular domain; not shown: transmembrane domain of platelet-derived growth factor (so in the source) with a HA tag
# T3 sequence (looked up): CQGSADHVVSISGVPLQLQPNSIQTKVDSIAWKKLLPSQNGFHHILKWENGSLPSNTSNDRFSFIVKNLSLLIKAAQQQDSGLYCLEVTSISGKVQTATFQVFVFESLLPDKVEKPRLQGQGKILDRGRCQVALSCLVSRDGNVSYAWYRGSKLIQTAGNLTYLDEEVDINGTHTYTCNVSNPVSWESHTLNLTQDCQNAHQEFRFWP
# T4: TNFSF4 extracellular domain fused to a generic transmembrane domain, on tetracycline-inducible FlpIn cells (UniProt P23510 51-183)
# T4 construct: extracellular domain; also called OX40L; not shown: transmembrane domain of platelet-derived growth factor (so in the source) with a HA tag
# T4 sequence (looked up): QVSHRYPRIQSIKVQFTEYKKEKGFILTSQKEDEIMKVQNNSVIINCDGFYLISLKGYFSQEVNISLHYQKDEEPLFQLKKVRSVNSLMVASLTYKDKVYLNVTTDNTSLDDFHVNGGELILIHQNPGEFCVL
# B1: NCR3.18 Fab (Fab)
# heavy: EVQLVESGGGLVQPGGSLRLSCAASGFNVSSSSIHWVRQAPGKGLEWVASISSSSGSTSYADSVKGRFTISADTSKNTAYLQMNSLRAEDTAVYYCARRISSYYMSYYDSFYYAGMDYWGQGTLVTVSSASTKGPSVFPLAPSSKSTSGGTAALGCLVKDYFPEPVTVSWNSGALTSGVHTFPAVLQSSGLYSLSSVVTVPSSSLGTQTYICNVNHKPSNTKVDKKVEPKSCDKTHT
# light: DIQMTQSPSSLSASVGDRVTITCRASQSVSSAVAWYQQKPGKAPKLLIYSASSLYSGVPSRFSGSRSGTDFTLTISSLQPEDFATYYCQQSSSSLITFGQGTKVEIKRTVAAPSVFIFPPSDSQLKSGTASVVCLLNNFYPREAKVQWKVDNALQSGNSQESVTEQDSKDSTYSLSSTLTLSKADYEKHKVYACEVTHQGLSSPVTKSFNRGEC
# notes: also called parental NCR3.18 clone; anti-NCR3 Fab #78
# B2: NCR3.18.7 (Fab, V domains shown)
# VH: EVQLVESGGGLVQPGGSLRLSCAASGFNVSSSSIHWVRQAPGKGLEWVASISSSSGSTSYADSVKGRFTISADTSKNTAYLQMNSLRAEDTAVYYCARRISSYYISYYDSFYYAGMDYWGQGTLVTVSS
# VL: DIQMTQSPSSLSASVGDRVTITCRASQSVSSAVAWYQQKPGKAPKLLIYSASSLYSGVPSRFSGSRSGTDFTLTISSLQPEDFATYYCQQSSSSLITFGQGTKVEIKR
# notes: substitutions derived against parental HC3
# B3: NCR3.18.12 (Fab, V domains shown)
# VH: B2 VH with I100R, S101A, I105K, S106T
# VL: B2 VL
# notes: as for B2
# B4: NCR3.18.1 (Fab, V domains shown)
# VH: B2 VH with I100A, Y103R, Y104F, I105R
# VL: B2 VL
# notes: substitutions derived by comparing with parental HC3
# B5: NCR3.18.9 (Fab, V domains shown)
# VH: B2 VH with I100K, Y103S, I105W
# VL: B2 VL
# notes: as for B2
# B6: NCR3.18.17 (Fab, V domains shown)
# VH: B2 VH with I100V, S101G, I105M
# VL: B2 VL
# notes: as for B2
# B7: NCR3.18.6 (Fab, V domains shown)
# VH: B2 VH with Y103S, I105M
# VL: B2 VL
# notes: as for B2
# B8: NCR3.18.15 (Fab, V domains shown)
# VH: B2 VH with I100T, Y103H
# VL: B2 VL
# notes: as for B2
# B9: NCR3.18.4 (Fab, V domains shown)
# VH: B2 VH with Y103H, I105M
# VL: B2 VL
# notes: as for B2
# B10: NCR3.18.14 (Fab, V domains shown)
# VH: B2 VH with I100T, S101G, I105M, S106T
# VL: B2 VL
# notes: as for B2
# B11: NCR3.18.19 (Fab, V domains shown)
# VH: B2 VH with I100V, Y103P, I105M, M116L
# VL: B2 VL
# notes: as for B2
# B12: NCR3.18.10 (Fab, V domains shown)
# VH: B2 VH with I100K, I105M
# VL: B2 VL
# notes: as for B2
# B13: NCR3.18.18 (Fab, V domains shown)
# VH: B2 VH with I100V, Y103N, I105M
# VL: B2 VL
# notes: as for B2
# B14: NCR3.18.8 (Fab, V domains shown)
# VH: B2 VH with I105V
# VL: B2 VL
# notes: as for B2
# B15: NCR3.18.11 (Fab, V domains shown)
# VH: B2 VH with I100L, S101G, Y103R, I105R
# VL: B2 VL
# notes: as for B2
# B16: NCR3.18.13 (Fab, V domains shown)
# VH: B2 VH with I100R, I105M, S106T
# VL: B2 VL
# notes: as for B2
# B17: NCR3.18.3 (Fab, V domains shown)
# VH: B2 VH with S101G, Y103I, I105R
# VL: B2 VL
# notes: as for B2
# Molecular target: T1, NCR3 (antigen of the ELISA in the …)
# Assay: ELISA, Fab on NCR3
row,EC50 [nM],Binder
1,1.63,B1
2,1.23,B2
3,0.53,B3
4,0.78,B4
5,0.51,B5
6,0.58,B6
7,1.38,B7
8,2.98,B8
9,2.29,B9
10,0.57,B10
11,0.38,B11
12,1.11,B12
13,2.2,B13
14,0.95,B14
15,0.77,B15
16,0.98,B16
17,0.68,B17

# Molecular target: T2, NCR3 on cell (on-cell binding in the …)
# Assay: on-cell binding, Fab on NCR3
row,EC50 [nM],Binder
1,2.27,B1
2,3.19,B2
3,2.13,B3
4,2.14,B4
5,2.24,B5
6,2.11,B6
7,4.67,B7
8,6.76,B8
9,1.44,B9
10,3.11,B10
11,1.41,B11
12,4.09,B12
13,3.39,B13
14,2.74,B14
15,1.47,B15
16,2.55,B16
17,1.61,B17

# Molecular target: T5, CD16 extracellular domain fused to a generic transmembrane domain, on tetracycline-inducible FlpIn cells (human, UniProt P08637 17-208)
# T5 construct: extracellular domain; HEK293 FlpIn cells, expression on tetracycline addition; also called CD16 over expression cell line; CD16A; not shown: transmembrane domain of platelet-derived growth factor (so in the source) with a HA tag
# T5 sequence (P08637 17-208): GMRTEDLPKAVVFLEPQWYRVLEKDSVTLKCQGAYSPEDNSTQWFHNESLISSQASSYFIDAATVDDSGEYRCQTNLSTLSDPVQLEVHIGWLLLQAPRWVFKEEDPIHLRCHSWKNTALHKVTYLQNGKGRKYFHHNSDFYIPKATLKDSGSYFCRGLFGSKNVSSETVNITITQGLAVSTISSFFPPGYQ
# Assay: flow cytometry, Fab on tetracycline-inducible cell lines over-expressing each ECD (FIG. S5)
# Protocol: (§1) To investigate the specificity of both activating and non-functional antibodies for their receptor targets, we developed a tetracycline-inducible cell line for each protein target—CD16, NCR1, NCR3, CD244, TNFRSF9, and TNFSF4. The ECDs of these proteins were fused to a generic transmembrane domain and were expressed upon tetracycline addition.
# (§2) Titrations were performed on primary human NK cells or tetracycline induced overexpression cell lines as indicated. When tetracycline induced overexpression cell lines were used, cells were dosed with 10 μg/mL tetracycline for 2 days prior to staining. The starting concentration of each Fab or bispecific antibody was 1 μM, and serial 1:5 dilutions were performed. Antibodies were incubated with cells for 1 hr at 4° C., washed 2 times in 3% BSA in PBS pH 7.4, and stained for 30 min with an Alexafluor-647 conjugated goat anti-human IgG F(ab′)2 fragment (Jackson ImmunoResearch Laboratories) at a 1:50 dilution. After an additional 3 washes, cells were fixed and fluorescence was quantified using a CytoFLEX (Beckman Coulter). All flow cytometry data were analyzed using FlowJo software.
row,binding result,Binder
1,no binding,B1

# Molecular target: T6, TNFRSF9 extracellular domain fused to a generic transmembrane domain, on tetracycline-inducible FlpIn cells (UniProt Q07011 24-186)
# T6 construct: extracellular domain; also called 4-1BB; not shown: transmembrane domain of platelet-derived growth factor (so in the source) with a HA tag
# Assay: as above
# Protocol: as §1, §2
row,binding result,Binder
1,no binding,B1

# Molecular target: T7, NCR1 extracellular domain fused to a generic transmembrane domain, on tetracycline-inducible FlpIn cells (human, UniProt O76036 22-258)
# T7 construct: extracellular domain; HEK293 FlpIn cells, expression on tetracycline addition; also called NCR1 over expression cell line; not shown: transmembrane domain of platelet-derived growth factor (so in the source) with a HA tag
# T7 sequence (O76036 22-258): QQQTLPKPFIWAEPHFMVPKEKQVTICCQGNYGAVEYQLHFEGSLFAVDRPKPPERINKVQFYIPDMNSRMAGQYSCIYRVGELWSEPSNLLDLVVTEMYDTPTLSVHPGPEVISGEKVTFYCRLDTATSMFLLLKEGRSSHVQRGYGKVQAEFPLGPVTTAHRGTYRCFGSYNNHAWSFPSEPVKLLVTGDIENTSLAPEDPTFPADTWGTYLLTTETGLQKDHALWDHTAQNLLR
# Assay: as above
# Protocol: as §1, §2
row,binding result,Binder
1,no binding,B1

# Molecular target: T3, CD244 extracellular domain fused to a …
# Assay: as above
# Protocol: as §1, §2
row,binding result,Binder
1,no binding,B1

# Molecular target: T4, TNFSF4 extracellular domain fused to a …
# Assay: as above
# Protocol: as §1, §2
row,binding result,Binder
1,no binding,B1
